For orientation: EC50 (read off the curve) means the midpoint of the concentration-response curve. One may read the Kd as a measure of binding affinity in units of concentration. What is called koff is the first-order rate constant of dissociation. The term kon denotes the rate constant with which the complex forms.

The values below come from US20090130123A1 (published 2009).

For test [1], the target named is T1, Recombinant WNV-E protein ectodomain (West Nile virus, UniProt Q9Q6P4 291-700).
T1 construct: extracellular domain; also called rWNV-E; WNE
T1 sequence (looked up): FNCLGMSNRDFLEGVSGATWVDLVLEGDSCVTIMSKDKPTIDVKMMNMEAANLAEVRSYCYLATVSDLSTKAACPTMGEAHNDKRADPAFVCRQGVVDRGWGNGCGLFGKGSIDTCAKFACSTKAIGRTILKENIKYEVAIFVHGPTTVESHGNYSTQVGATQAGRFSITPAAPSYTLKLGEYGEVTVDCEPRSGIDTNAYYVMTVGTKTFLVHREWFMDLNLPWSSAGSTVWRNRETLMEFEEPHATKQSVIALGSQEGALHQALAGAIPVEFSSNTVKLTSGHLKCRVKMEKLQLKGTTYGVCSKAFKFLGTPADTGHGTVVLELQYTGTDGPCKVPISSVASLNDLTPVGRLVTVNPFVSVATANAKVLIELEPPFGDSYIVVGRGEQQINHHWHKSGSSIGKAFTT
The experiment in a line: ELISA; plate coated with rWNV-E (1 ug/ml), purified His6-tagged scFv, anti-His6-HRP, OD450.

The target in test [2] is T1, Recombinant WNV-E protein ectodomain. The experiment in a line: SPR (Biacore 3000); scFv on NTA chip via His tag, rWNV-E in solution. On the technique in general: Surface plasmon resonance follows binding to a sensor surface in real time, without labels.

B1: scFv 10 (scFv, not shown: small tags and cut ends)
scFv: MAQVQLVQSGAEVKKPGSSVKVSCKASGYTFSGYSTHWLRQVPGQGLEWIGWDNPSSGDTTYAENFRGRVTLTRDTSITTDYLEVRGLRSDDTAVYYCARGGDDYSFDHWGQGTLVTVSSSGGGSGGGGSGGGGSQTVVTQEPSFSVSPGGTITLTCGLSSGSVFTSYYPSWYQQTPGQAPRTLIYSTNTRSSGVPDRFSGSILGNKAALTITGAQADDESDYYCVLYMGSGIGVFGTGTKVTVLGQPKAAPSAAAEQKLISEEDL
notes: also called 10 scFv; antibody 10
In the case of B1, the “EC50 (read off the curve)” value in test [1] was around 0.2 µg/mL. Also, in test [2], the Ka amounted to 2.64e+07 M⁻¹, the Kd was 37.8 nM, the koff is 0.0212 s⁻¹ and the on-rate constant (kon) worked out at 561000 M⁻¹ s⁻¹.
